These results are taken from PMC12302927.

Targets include HA-tagged STAT1 (WT) (UniProt P42224); HA-tagged STAT1 K193R (UniProt P42224); HA-tagged STAT1 K584R (UniProt P42224).
What all share (experiment): co-IP; 293T cells co-transfected with HA-tagged STAT1 (WT, K193R, K584R) and FLAG-p300; band intensities quantified; which protein was precipitated not given

In the case of FLAG-p300, Q09472 1-2414, the relative co-IP band intensity with HA-tagged STAT1 (WT) was 0.202; with HA-tagged STAT1 K193R, 0.194; with HA-tagged STAT1 K584R, 0.239.
